How the values were obtained:
[1] = target: T1, Recombinant human twin strep-tagged ROR2 extracellular domain (human, UniProt Q01974 34-403); experiment: ELISA on coated twin strep-tagged hROR2
T1 construct: extracellular domain; also called strep-tagged human ROR2; recombinant, purified hROR2
Method: (§1) Each well of a 96-well plate was coated with 100 μL of 2 μg/mL strep-tagged human ROR1 or ROR2 (from Example 5) in 0.1 M bicarbonate coating buffer (pH 9.6), and incubated for 12 h at 4° C.

[2] = target: T2, StrepII-tagged human ROR1-extracellular domain (human, UniProt Q01973 30-406); experiment: ELISA on coated strep-tagged hROR1, detected with anti-human Fc-gamma HRP
T2 construct: also called strep-tagged human ROR1; recombinant, purified hROR1
T2 sequence (Q01973 other isoform, or with tags, fused parts or gaps): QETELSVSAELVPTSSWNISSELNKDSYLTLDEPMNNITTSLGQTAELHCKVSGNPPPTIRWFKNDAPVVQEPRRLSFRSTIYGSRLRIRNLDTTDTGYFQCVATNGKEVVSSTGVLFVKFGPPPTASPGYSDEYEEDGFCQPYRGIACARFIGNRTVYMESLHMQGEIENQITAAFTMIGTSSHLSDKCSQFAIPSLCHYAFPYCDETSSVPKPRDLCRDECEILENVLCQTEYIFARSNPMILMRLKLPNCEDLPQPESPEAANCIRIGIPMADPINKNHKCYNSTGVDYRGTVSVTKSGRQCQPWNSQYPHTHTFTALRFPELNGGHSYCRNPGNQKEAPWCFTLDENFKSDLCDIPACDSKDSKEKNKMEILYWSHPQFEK
Method: as §1

[3] = target: T3, human ROR1 (hROR1) on the cell surface (human, UniProt Q01973 30-937); experiment: flow cytometry on human cancer cell lines, 2A2 at 2 µg/mL
T3 construct: whole, on cells; Endogenous on the human lines 697, MDA-MB-468, HS-578T, A549 and HT-29; ectopically expressed on murine EMT-6 cells (clone 14); also called full-length ROR1 (NP_005003.2)
T3 sequence (Q01973 30-937): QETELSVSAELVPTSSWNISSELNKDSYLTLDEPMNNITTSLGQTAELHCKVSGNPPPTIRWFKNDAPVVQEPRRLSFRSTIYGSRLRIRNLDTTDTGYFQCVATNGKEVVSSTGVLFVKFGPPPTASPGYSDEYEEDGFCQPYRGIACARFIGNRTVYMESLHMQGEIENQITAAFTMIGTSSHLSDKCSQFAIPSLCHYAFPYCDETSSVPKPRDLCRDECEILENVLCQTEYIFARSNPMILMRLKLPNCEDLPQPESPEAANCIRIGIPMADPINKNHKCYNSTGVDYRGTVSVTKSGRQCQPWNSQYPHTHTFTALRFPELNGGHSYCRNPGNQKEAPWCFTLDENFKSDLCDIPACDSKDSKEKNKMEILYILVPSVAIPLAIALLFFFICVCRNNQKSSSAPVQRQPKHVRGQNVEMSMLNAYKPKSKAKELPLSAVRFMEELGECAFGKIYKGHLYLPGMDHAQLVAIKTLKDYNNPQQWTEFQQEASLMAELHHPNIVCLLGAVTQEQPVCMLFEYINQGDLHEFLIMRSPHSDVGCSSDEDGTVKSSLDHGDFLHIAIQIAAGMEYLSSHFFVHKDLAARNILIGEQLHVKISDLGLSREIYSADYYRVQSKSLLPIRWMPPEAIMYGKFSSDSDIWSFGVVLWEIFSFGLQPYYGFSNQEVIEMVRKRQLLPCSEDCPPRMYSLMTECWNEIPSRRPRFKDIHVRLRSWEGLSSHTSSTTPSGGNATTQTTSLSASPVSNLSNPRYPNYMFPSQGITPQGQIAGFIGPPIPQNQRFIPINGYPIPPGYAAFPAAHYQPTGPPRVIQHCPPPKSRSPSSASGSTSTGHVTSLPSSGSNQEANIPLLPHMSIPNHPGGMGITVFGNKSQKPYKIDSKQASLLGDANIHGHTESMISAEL

T1 sequence (Q01974 other isoform, or with tags, fused parts or gaps): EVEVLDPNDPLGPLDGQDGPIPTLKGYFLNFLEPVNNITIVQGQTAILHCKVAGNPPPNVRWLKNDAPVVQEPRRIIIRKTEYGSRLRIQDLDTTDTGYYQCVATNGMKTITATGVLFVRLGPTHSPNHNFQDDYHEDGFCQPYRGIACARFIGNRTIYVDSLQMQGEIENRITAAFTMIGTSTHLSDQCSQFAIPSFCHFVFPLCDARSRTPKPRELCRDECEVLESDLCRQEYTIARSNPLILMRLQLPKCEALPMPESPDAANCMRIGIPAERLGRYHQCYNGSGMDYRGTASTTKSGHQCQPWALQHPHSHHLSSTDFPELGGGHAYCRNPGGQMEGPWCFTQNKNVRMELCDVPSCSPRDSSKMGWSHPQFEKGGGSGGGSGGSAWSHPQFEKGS

B1: ERR1-301 (mAb027) (antibody, human IgG1, V domains shown)
VH: QEQLEESGGGLVTPGGSLTLTCTASGFTISTYHMSWVRQAPGKGLEWIGSIYAGSGSTYYASWVNGRFTISSNTTQNTVSLQMNSLTVADTATYFCARDHPSYGMDLWGPGTLVTVSS
VL: SYELTQLPSVSVSLGQTARITCGGNSIGSKAVNWYQQKPGLAPGLLIYDDDERPSGVPDRFSASNSGDTATLTISGAQAEDEADYYCQLWDSSAVAYVFGGGTQLTVTG
notes: Chimeric rabbit/human IgG1, lambda; not shown: Strep tag
B1: no binding [1]; binds [2].

B2: ERR1-403 (mAb035) (antibody, human IgG1, V domains shown)
VH: QEQLKESGRGLVQPGGSLKLSCKASGFDFSGWYMTWVRQAPGKGLEWIGTIGTTKGRTYYASWVNGRFTISSDNAQNTVDLQMNSLTAADRATYFCVRGSDYFDLWGPGTLVTISS
VL: SYELTQLPSVSVSLGQTARITCGGNSIGSKAVNWYQQKPGLAPGLLIYDDDERPSGVPARFSGSNSGDTATLTISGAQAGDEADYYCQLWDSSAGAYVFGGGTQLTVTG
notes: as for B1
B2: no binding [1]; binds [2].

B3: ERR1-Top43 (mAb036) (antibody, human IgG1, V domains shown)
VH: QSLEESGGRLVTPGTPLTLTCTVSGFSLSSYWMSWVRQAPGKGLEWIGAIYGSGNTYYASWAKGRFTISKTSTTVDLKITSPTTEDTATYFCARDVHSTATDLWGPGTLVTISS
VL: SYELTQLPSVSVSLGQTARITCGGNNIGSKAVNWYQQKPGLAPGLLIYNDDERPSGVPDRFSGSNSGDTATLTISGAQAGDEADYYCQLWDSSAGAYVFGGGTQLTVTG
notes: as for B1
B3: no binding [1]; binds [2].

B4: ERR1-306 (mAb033) (antibody, human IgG1, V domains shown)
VH: QEQLKESGGGLVQPGGSLKLSCKASGFDLSNYGVSWVRQAPGKGLEWIGYIDPTFDYTYYASWVNGRFSISRENTQNTVSLQINSLTPADTATYFCARWVYGVDDYGDGNWLDLWGQGTLVTISS
VL: QFVLTQSPSVSAALGASAKLTCTLSSAHKTYTIDWYQQQQGEAPRYLMELKSDGSYTKGTGVPDRFSGSSSGADRYLIIPSVQADDEADYYCGTDYSGGYVFGGGTQLTVTG
notes: as for B1
B4: no binding [1].

B5: ERR1-324 (mAb034) (antibody, human IgG1)
heavy: not shown
light: ELVLTQTPSPVSAAVGGTVTINCQASQSVYGNNELAWYQQKPGQPPKLLIYRASILTSGVPSRFKGSGSGTQFTLTISNVQREDAATYYCLGGYVSQSYRAAFGGGTELEILRTVAAPSVFIFPPSDEQLKSGTASVVCLLNNFYPREAKVQWKVDNALQSGNSQESVTEQDSKDSTYSLSSTLTLSKADYEKHKVYACEVTHQGLSSPVTKSFNRGECGGGGGSLPETG
notes: Chimeric rabbit/human IgG1, kappa; not shown: Strep tag
B5: no binding [1]; binds [2].

B6: XBR1-402 (mAb031) (antibody, human IgG1, V domains shown)
VH: QEQQKESGGGLFKPTDTLTLTCTASGFDISSYYMSWVRQAPGNGLEWIGAIGISGNAYYASWAKSRSTITRNTNLNTVTLKMTSLTAADTATYFCARDHPTYGMDLWGPGTLVTVSS
VL: SYELTQLPSVSVSLGQTARITCEGNNIGSKAVHWYQQKPGLAPGLLIYDDDERPSGVPDRFSGSNSGDTATLTISGAQAGDEADYYCQVWDSSAYVFGGGTQLTVTG
notes: as for B1
B6: no binding [1]; binds [2].

B7: 2A2 (mAb066) (antibody, human IgG1)
heavy: not shown
light: DIVMTQSQKIMSTTVGDRVSITCKASQNVDAAVAWYQQKPGQSPKLLIYSASNRYTGVPDRFTGSGSGTDFTLTISNMQSEDLADYFCQQYDIYPYTFGGGTKLEIKRTVAAPSVFIFPPSDEQLKSGTASVVCLLNNFYPREAKVQWKVDNALQSGNSQESVTEQDSKDSTYSLSSTLTLSKADYEKHKVYACEVTHQGLSSPVTKSFNRGECGGGGGSLPETG
notes: IgG with human IgG1 and kappa constant regions; also called anti-human ROR1 antibody 2A2; not shown: Strep tag
B7: binds [3].

Reference: patent US20210139579A1 (NBE THERAPEUTICS, published 2021)
